Tested on: MS2 coat protein
Assay: apparent KD of MS2 coat protein; designed switch direction (-1 OFF switch, 1 ON switch): -1; higher = weaker reporter binding
In short: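 On Illumina chips, designed RNA switches with common flanks were made by stalled E. coli RNA polymerase. Titrations with SNAP-549-labelled MS2 coat protein, doubling from 0.7 or 1.5 nM to 3 µM, were done with no input, with 200 uM small-molecule ligand, or with an oligonucleotide input. Apparent KD is the median per design over clusters, from curve fits of normalised cluster fluorescence.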

[1] = Eterna round: R95, input ligand: FMN 200 uM
[2] = Eterna round: R95, input ligand: microRNA oligo, concentration not stated
[3] = Eterna round: R95, input ligand: none
[4] = input ligand: microRNA oligo, concentration not stated

Sequence: AUGAGACAUGAGGAUCACCCAUGUGAGGAUAUGUAUGGAUGGUGGAAAGAAUGAGAGAACAGAAGGCACGUAGA [JR_Exclu1_Sub062] (puzzle: Exclusion 1)
- apparent KD of MS2 coat protein [1]: 122 nM
- apparent KD of MS2 coat protein [2]: 109 nM
- apparent KD of MS2 coat protein [3]: 231 nM

Sequence: CUAGUCCGAGGAUAUAUAUUGUGAAACAUGAGGAUCACCCAUGUUAUAAUAUGGAAAUAAAUAGAAGGCGGACUAG [Mat - Exclusion 5 - JL mod - D57] (puzzle: Exclusion 5)
- apparent KD of MS2 coat protein [1]: 23.3 nM
- apparent KD of MS2 coat protein [2]: 38.5 nM
- apparent KD of MS2 coat protein [3]: 18.8 nM

Sequence: UAACGGGCUUCUUCGUUUACAACAUGAGGAUCACCCAUGUUCGAGGAUAUCCACUAAGCUCUUCAGGAGAAGGCGAACAUAAUG [Rizaoran] (Eterna round: R96, puzzle: Exclusion NG 3)
- apparent KD of MS2 coat protein (input ligand: FMN 200 uM): 37.2 nM
- apparent KD of MS2 coat protein [4]: 15.1 nM
- apparent KD of MS2 coat protein (input ligand: none): 14.6 nM

Sequence: AAAAGGUCAGGAUAUCCAAGAAAAGAAAAGAAAAGAAAAGAGGAGAAGGGACAUGAGGAUCACCCAUGUAAAAG [Default title] (puzzle: Exclusion 4)
- apparent KD of MS2 coat protein [1]: 39 nM
- apparent KD of MS2 coat protein [2]: 42.7 nM
- apparent KD of MS2 coat protein [3]: 38 nM

Sequence: CCGGAAAGGAAGGAUAUGCUAGACGAAAGUCUAGCAGAAGGUCCUACAUGAGGAUCACCCAUGUGUCCUCCCGG [Eli x6 4.08] (Eterna round: R97, puzzle: Exclusion 6)
- apparent KD of MS2 coat protein (input ligand: FMN 200 uM): 2270 nM
- apparent KD of MS2 coat protein (input ligand: none): 270 nM

Sequence: CGGUAGUGCUCAGGAUAUACAUGAGGAUCACCCAUGUAACUAGAAUCGGUCGUCCGAUCAGUGGUGUAGAAGGGAGGCUGGCUG [random 1, A 25%] (Eterna round: R96, puzzle: Exclusion NG 2)
- apparent KD of MS2 coat protein (input ligand: FMN 200 uM): 32.1 nM
- apparent KD of MS2 coat protein [4]: 22 nM
- apparent KD of MS2 coat protein (input ligand: none): 31.5 nM

Sequence: AAUUUACAUGAGGAUCACCCAUGUGAGGAUAUAUGUUUUAAUUUUUUUUUUUUUUUUCAUAGAAGGCGCGUGAU [JR_Exc1_Sub047] (Eterna round: R97, puzzle: Exclusion 1)
- apparent KD of MS2 coat protein (input ligand: FMN 200 uM): 49.4 nM
- apparent KD of MS2 coat protein (input ligand: none): 43.5 nM

Sequence: AAAAUGCAAGGAUAUCGCGAUAAAUACAUGAGGAUCACCCAUGUGAUUACGUGGGCACGGCGAGAAGGUGCUAAAA [Amadius] (puzzle: Exclusion 5)
- apparent KD of MS2 coat protein [1]: 119 nM
- apparent KD of MS2 coat protein [2]: 26.1 nM
- apparent KD of MS2 coat protein [3]: 33.8 nM

Sequence: AUAUAGAUAGUCAGGAUAUGCUAGUGAUAACAGUAGUAGAAGGGACAUGAGGAUCACCCAUGUAGAUACUGCAC [Brourd's EX4 #3] (Eterna round: R97, puzzle: Brourd's mod of Exclusion 4)
- apparent KD of MS2 coat protein (input ligand: FMN 200 uM): 19.6 nM
- apparent KD of MS2 coat protein (input ligand: none): 19.3 nM

Sequence: GACACCAAAGGAUAUACAUGAGGAUCACCCAUGUGCUGCAAAAGCUGAGCUCAAAUGUGUAGAAGGUUGAAAUA [Eternabot (Original) Solution 40] (Eterna round: R97, puzzle: Exclusion 3)
- apparent KD of MS2 coat protein (input ligand: FMN 200 uM): 39 nM
- apparent KD of MS2 coat protein (input ligand: none): 31.6 nM

Sequence: GGUUGGCGAGGAUAUACAUGAGGAUCACCCAUGUGAGAUAAAAAAGUGAGGAAGAAAAGUAGAAGGCGCUGACG [salish99_ex3_r3_010] (puzzle: Exclusion 3)
- apparent KD of MS2 coat protein [1]: 1140 nM
- apparent KD of MS2 coat protein [2]: 71.5 nM
- apparent KD of MS2 coat protein [3]: 85.1 nM

Sequence: UUUUUACGAGGAUAUCGUUUUUUUCACAUGAGGAUCACCCAUGUUGUUUAUGUUUCGUUUCGAGAAGGCGUUUGUU [JR_E5_Sub065] (puzzle: Exclusion 5)
- apparent KD of MS2 coat protein [2]: 26.1 nM

Sequence: AAAAAGGUAGGAUAUACGAAAAAAAAGGGUAGAAAAAAAACACAUGAGGAUCACCCAUGUAGAAGGACCAAAAC [salish99_ex2_r3_046] (puzzle: Exclusion 2)
- apparent KD of MS2 coat protein [1]: 66.7 nM
- apparent KD of MS2 coat protein [2]: 33.4 nM
- apparent KD of MS2 coat protein [3]: 30.2 nM

Sequence: UUUGUCUGUGUGAGGAUAUACUUGUUUGGGUUUUUGUAGAAGGCACAUGAGGAUCACCCAUGUAUUUUGUUGUG [JR_BME4_Sub017] (puzzle: Brourd's mod of Exclusion 4)
- apparent KD of MS2 coat protein [2]: 49.7 nM

Sequence: UAUUAGCAAGCAAGAUCCCACAUGAGGAUCACCCAUGUGCUCGUCUUAUAAGGUACUGUGACGAGAGUCACGGUACC [Mat - Sensor, turn-off var - Eli Mod - D47] (Eterna round: R97, puzzle: Sensor, turn-off variant 1)
- apparent KD of MS2 coat protein (input ligand: FMN 200 uM): 51.4 nM
- apparent KD of MS2 coat protein (input ligand: none): 54.2 nM

Sequence: UUUGUCUGUGUGAGGAUAUACUUGUUUGGGUUUUUGUAGAAGGCACAUGAGGAUCACCCAUGUAUUUUGUUGUG [JR_BME4_Sub017] (Eterna round: R96, puzzle: Brourd's mod of Exclusion 4)
- apparent KD of MS2 coat protein (input ligand: FMN 200 uM): 86.5 nM
- apparent KD of MS2 coat protein [4]: 47.7 nM
- apparent KD of MS2 coat protein (input ligand: none): 55.9 nM

Sequence: AAGAAACAUGAGGAUCACCCAUGUGAGGAUAUGAAAAAUAAAAUAAAAUAAAUAAUAAUCAGAAGGCACAAAGG [Mat - Mod of Hog D7] (puzzle: Exclusion 1)
- apparent KD of MS2 coat protein [1]: 37.3 nM
- apparent KD of MS2 coat protein [2]: 34.1 nM
- apparent KD of MS2 coat protein [3]: 42 nM

Sequence: CAAUAGAAAGGAUAUACAGUAGGCGUUGUGCUCGAGCACUCACAUGAGGAUCACCCAUGUAGAAGGUUCAGUUA [EX2 C.18] (Eterna round: R97, puzzle: Exclusion 2)
- apparent KD of MS2 coat protein (input ligand: FMN 200 uM): 27.9 nM
- apparent KD of MS2 coat protein (input ligand: none): 17.7 nM

Sequence: GGAUUACAUGAGGAUCACCCAUGUCAGGAUAUACGAUCAUAUGCCGAAAGGCAUAUGAGUAGAAGGGACAAUAU [AK-MS2ROC-r4-exclusion1-2.0] (Eterna round: R97, puzzle: Exclusion 1)
- apparent KD of MS2 coat protein (input ligand: FMN 200 uM): 46.2 nM
- apparent KD of MS2 coat protein (input ligand: none): 36.1 nM

Sequence: ACACAGAUAGGAUAUCGGACUAUGGACAUGAGGAUCACCCAUGUGCGUCCAAUGUCCGACCGAGAAGGAUCAACAG [Teesvete] (puzzle: Exclusion 5)
- apparent KD of MS2 coat protein [1]: 146 nM
- apparent KD of MS2 coat protein [2]: 51.8 nM
- apparent KD of MS2 coat protein [3]: 77 nM

Sequence: AGUACUAACACGAAAGUGUUAGUACUAUAAGUUUGUGUUACAUGAGGAUCACCCAUGUCCUCAUAAGCUCGUCUUGU [Mat - Sensor v3 - Turn-off var 2 - D95] (puzzle: Sensor v3, turn-off variant 2)
- apparent KD of MS2 coat protein [1]: 911 nM
- apparent KD of MS2 coat protein [2]: 199 nM
- apparent KD of MS2 coat protein [3]: 626 nM

Sequence: ACGGACCGAGGAUAUGCAUGCAGGAUACCUGGGUCCAAUGGACAUGAGGAUCACCCAUGUAGAAGGCGGAAAUA [Arinisra] (Eterna round: R97, puzzle: Exclusion 2)
- apparent KD of MS2 coat protein (input ligand: FMN 200 uM): 86.3 nM
- apparent KD of MS2 coat protein (input ligand: none): 31.4 nM

Sequence: AACUGUACAGGAUAUACAUGAGGAUCACCCAUGUGAGAAUUAAGUGGAGAACCACAAAGUAGAAGGGUACAGGA [Mat - Exclusion 3 - JL mod - D17] (Eterna round: R96, puzzle: Exclusion 3)
- apparent KD of MS2 coat protein [4]: 38.4 nM

Sequence: GUGGGUUACAUGAGGAUCACCCAUGUAUAGUGGGAAGAGAUAUAGGAUAUAAUAUAAAAAUUAUAUUAGAAGGAUAGAGACUAG [AK ExNG3-1.2] (Eterna round: R96, puzzle: Exclusion NG 3)
- apparent KD of MS2 coat protein (input ligand: FMN 200 uM): 491 nM
- apparent KD of MS2 coat protein [4]: 285 nM
- apparent KD of MS2 coat protein (input ligand: none): 505 nM

Sequence: AGCGUGGCUCAGGAUAUCAGCCCUGUGGAGUUCUGAGAAGGGAGCACAUGAGGAUCACCCAUGUGAAAGGGUAC [Useratarin] (puzzle: Exclusion 6)
- apparent KD of MS2 coat protein [1]: 103 nM
- apparent KD of MS2 coat protein [2]: 24.7 nM
- apparent KD of MS2 coat protein [3]: 29.7 nM

Sequence: GCAGCAUAGAUAACAGUCUGAUACAUGAGGAUCACCCAUGUGCAGGAUAUGGUCUGGAUUACAGGCCAGAAGGGUACAAGCUGC [Eli exng3 - 015] (Eterna round: R96, puzzle: Exclusion NG 3)
- apparent KD of MS2 coat protein (input ligand: FMN 200 uM): 10.4 nM
- apparent KD of MS2 coat protein [4]: 7.84 nM
- apparent KD of MS2 coat protein (input ligand: none): 13.4 nM

Sequence: ACGCAUUGCCUUUGGUAGUGCGUAACAUGAGGAUCACCCAUGUAGGAUAUGGUAGGCUUUGCUUACCAGAAGGACAUUAUAAUC [Mat - Exclusion NG 3 - Mod of JL - D8] (Eterna round: R96, puzzle: Exclusion NG 3)
- apparent KD of MS2 coat protein (input ligand: FMN 200 uM): 65 nM
- apparent KD of MS2 coat protein [4]: 18.5 nM
- apparent KD of MS2 coat protein (input ligand: none): 25.1 nM

Sequence: CUCCGGCGUGUAGGAUAUGGUUCCGUUUCGGUUCCAGAAGGACAUGAGGAUCACCCAUGUACCUGUCGUCGGUCGUCACCGGGC [salish99_ExNG1_r04_216] (Eterna round: R96, puzzle: Exclusion NG 1)
- apparent KD of MS2 coat protein (input ligand: FMN 200 uM): 12.4 nM
- apparent KD of MS2 coat protein [4]: 13.2 nM
- apparent KD of MS2 coat protein (input ligand: none): 16.4 nM

Sequence: UAUGUUGUUGUGAGGAUAUACUUAGUUUGACCGUAGUAGAAGGCACAUGAGGAUCACCCAUGUAGAUUUUUGGU [JR_BME4_Sub007] (puzzle: Brourd's mod of Exclusion 4)
- apparent KD of MS2 coat protein [2]: 9.49 nM

Sequence: GGGAUGUGAGGAUAUCGAGGUGCAAAGCACCUAAAAGAAAACGAGAAGGCACAUGAGGAUCACCCAUGUAAUAC [Xeinle] (puzzle: Exclusion 4)
- apparent KD of MS2 coat protein [1]: 105 nM
- apparent KD of MS2 coat protein [2]: 26 nM
- apparent KD of MS2 coat protein [3]: 26 nM

Sequence: GUCAGACGAGGAUAUAGAUUUAGAUACAUGAGGAUCACCCAUGUAUAGAUGUAUUUAGAUUUAGAAGGCGUCUGAC [E5/13-A3] (Eterna round: R97, puzzle: Exclusion 5)
- apparent KD of MS2 coat protein (input ligand: FMN 200 uM): 231 nM
- apparent KD of MS2 coat protein (input ligand: none): 201 nM

Sequence: AAGAAACAUGAGGAUCACCCAUGUGAGGAUAUGAAAAAGAAAAGAAAAGAAAGAAGAAUCAGAAGGCACAAAGC [salish99-ex1_r3_090] (puzzle: Exclusion 1)
- apparent KD of MS2 coat protein [1]: 22.5 nM
- apparent KD of MS2 coat protein [2]: 28.6 nM
- apparent KD of MS2 coat protein [3]: 32.1 nM

Sequence: CGAUAAAGGUGAGGAUAUGAGAAUAGAAAGAAAUCAGAAGGCACACAUGAGGAUCACCCAUGUGAGUUCUUGAGAUUACAUGGU [Prohibition 44 - Jieux - Exclusion NG 1] (Eterna round: R96, puzzle: Exclusion NG 1)
- apparent KD of MS2 coat protein [4]: 11 nM

Sequence: CGAGCUAGUGUGAGGAUAUACCUAUGGAUACAUAGGUAGAAGGCACAUGAGGAUCACCCAUGUCCUAUAGCUCG [jl-bmx4-4.56] (Eterna round: R97, puzzle: Brourd's mod of Exclusion 4)
- apparent KD of MS2 coat protein (input ligand: FMN 200 uM): 499 nM
- apparent KD of MS2 coat protein (input ligand: none): 177 nM
